B1: (Pro)9 peptide (peptide)
peptide: PPPPPPPPP
notes: polyproline peptide of 9 residues, free amino and free carboxylate ends; printed as (Pro)9; also called P9; source: synthetic peptide; bought: TAG Copenhagen A/S
B2: PPG‐PPG‐PPG peptide (peptide)
peptide: PPGPPGPPG
notes: collagen-like model peptide, 9 residues, free amino and free carboxylate ends; also called (PPG)3; source: synthetic peptide; bought: TAG Copenhagen A/S
B3: PPG‐PEG‐PPG peptide (peptide)
peptide: PPGPEGPPG
notes: collagen-like model peptide, 9 residues, free amino and free carboxylate ends; also called PxGP‐peptide; source: synthetic peptide; bought: TAG Copenhagen A/S
B4: PPG‐PAG‐PPG peptide (peptide)
peptide: PPGPAGPPG
notes: as for B3
B5: PPG‐PRG‐PPG peptide (peptide)
peptide: PPGPRGPPG
notes: as for B3
B6: PSB‐I^144–244 construct (longer PSB‐I construct of human C‐P4H‐I α‐subunit) (domain or fragment)
chain: FLTAEDCFELGKVAYTEADYYHTELWMEQALRQLDEGEISTIDKVSVLDYLSYAVYQQGDLDKALLLTKKLLELDPEHQRANGNLKYFEYIMAKEKDVNKSLEHHHHHH
notes: numbers count on: the mature protein (α-I subunit after cleavage of the signal peptide); C-terminal Leu-Glu-(His)6 tag; The C-terminal Leu-Glu-His6 tag is kept and is written as a part, not under tags; also called longer PSB‐I^144–244 variant

The target in the first data set is T1, PSB‐I^143–238 construct (peptide‐substrate–binding domain of the α‐I subunit of human collagen prolyl … (human, UniProt P13674 160-255)).
T1 construct: numbers count on: the mature protein (α-I subunit after cleavage of the signal peptide); Monomer by SEC-MALS; also called PSB‐I construct; PSB‐I domain; source: E. coli Rosetta(DE3)pLysS, pET22b(+), purified (Ni‐NTA, Superdex75 SEC); not shown: Leu-Glu-His6, C-terminal, kept
T1 sequence (P13674 160-255): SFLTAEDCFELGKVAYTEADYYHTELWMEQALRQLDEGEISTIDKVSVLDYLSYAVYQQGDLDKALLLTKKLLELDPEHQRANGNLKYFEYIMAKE
The data set can be described thus: ITC; 3 mM peptide titrated into 50 μM PSB‐I^143–238 in the cell; 20 mM Bis‐Tris, 100 mM glycine, pH 6.8; 25°C; one‐set‐of‐sites model with fixed stoichiometry (n = 1); three measurements. The conditions noted are these: both partners purified. (Isothermal titration calorimetry measures the heat released or taken up as one component is titrated into another.)
Consider B1, for which binding was put at a Kd of 80.9 µM and the dH is -9.5 kcal/mol.

Consider B2, for which binding was characterised by a dissociation constant (Kd) of 309 µM and the dH is -13.6 kcal/mol.

As to B3, the Kd (in general, the free concentration of one partner at which half of the binding sites on the other are occupied at equilibrium, for simple one-to-one binding) is 84.3 µM and the dH is -13.2 kcal/mol.

On to B4, for which the Kd worked out at 91.3 µM and the dH is -12.4 kcal/mol.

The molecule B5 came in with a Kd of 37 µM and a dH of -14.9 kcal/mol.

Another data set deals with the molecule itself. The data set can be described thus: crystal structure; PSB‐I^144–244 crystallized without peptide, hanging drop, 4°C; 1 M sodium citrate, 0.1 M CHES, pH 9.5; contact between crystallographically related chains.
Conditions: not given
Regarding B6, the binding result was “binds”.

For the origin of these results see PMC12433258, “Binding Differences of the Peptide‐Substrate–Binding Domain of Collagen Prolyl 4‐Hydroxylases I and II for Proline‐ and Hydroxyproline‐Rich Peptides” (Proteins, 2025).
